Measured values from publication PMC3282769, “New Insight into the Transcarbamylase Family: The Structure of Putrescine Transcarbamylase, a Key Catalyst for Fermentative Utilization of Agmatine” (PLoS ONE, 2012).

B1: putrescine transcarbamylase (PTC) from Enterococcus faecalis, wild type (enzyme)
chain: not shown
notes: putrescine transcarbamylase, Enterococcus faecalis, gene ef0732, UniProt Q837U7; the final PTC-PAPU model has residues 1 to 340 in each chain; also called wild-type PTC; WT
B2: Enterococcus faecalis PTC lacking the C-terminal helix (helix 13), amino acids 1-317 (domain or fragment)
chain: not shown
notes: putrescine transcarbamylase, Enterococcus faecalis SD10 genomic DNA, gene ef0732, amino acids 1-317 followed by a stop codon (stop codon at position 318); Cloned in pNIC28-Bsa4; Most of the protein eluted as hexamers, a small fraction as monomers; also called truncated PTC; Trun; source: E. coli BL21 (DE3) co-transformed with pGroESL, purified (Ni-based chromatography)

Target: the molecule itself
Experiment: SEC; analytical size exclusion chromatography, Superdex 200HR 5/150 GL, 20 µl of 10 mg/ml protein injected, 24°C, 50 mM Hepes pH 7.5, 0.25 M NaCl; column calibrated with protein standards

Protein | stoichiometry N
B1 | 3
B2 | 6
